From IntAct's records for PubMed 18728196 come the findings set out here.

This assay has as its target pstp_myctu pstP (UniProt P9WHW5).

As to “ECF RNA polymerase sigma factor SigH (Mycobacterium tuberculosis (strain ATCC 25618 / H37Rv)), P9WGH9 T26A;T106A”, the “effect of a mutation on the interaction” value is listed as “disrupting interaction”.
